Measurements taken from patent US12679888B2, “IL-18 binding protein (IL-18BP) and antibodies for treating inflammatory diseases” (AB2 BIO SA, priority 2015, dated 2026).

Tests used:
IL-18 [1] = target: T1, IL-18 (Homo sapiens, UniProt Q14116); assay: Dissociation constant (Kd) used for dose selection, human; type: binding
T1 sequence (Q14116 37-193): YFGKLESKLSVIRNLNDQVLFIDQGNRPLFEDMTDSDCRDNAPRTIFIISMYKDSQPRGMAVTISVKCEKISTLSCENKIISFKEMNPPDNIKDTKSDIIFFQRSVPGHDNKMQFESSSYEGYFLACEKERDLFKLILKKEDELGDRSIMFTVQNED
Procedure: (§1) No validated animal model has been described for this condition. In the collagen-induced arthritis murine model the active dose for r-hIL-18BP administered intraperitoneally (i.p.) was determined to be 1 mg/Kg body weight. […] Altogether the expected pharmacologically active dose for a “humanized mice” treated by s.c. route with r-hIL-18BP is round 4.85 mg/kg. […] Although the guidance was initially written for extrapolating animal doses to healthy volunteers, its principles can be applied also to patients. […] Those doses will be likely also ineffective in AoSD patients considering that blood levels of IL-18 in AoSD are higher than those reported in the two above mentioned conditions.

IL-18 [2] = target: T2, IL-18 (Mus musculus, UniProt P70380); assay: Dissociation constant (Kd) used for dose selection, mouse; type: binding
T2 sequence (P70380 36-192): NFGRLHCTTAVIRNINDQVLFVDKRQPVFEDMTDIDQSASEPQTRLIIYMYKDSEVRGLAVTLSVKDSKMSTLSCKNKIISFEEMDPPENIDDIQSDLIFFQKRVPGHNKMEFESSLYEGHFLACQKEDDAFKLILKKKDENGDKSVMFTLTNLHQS
Procedure: as §1

[3] = system: collagen-induced arthritis murine model; assay: Collagen-induced arthritis murine model and dose extrapolation; type: in vivo, mouse
Procedure: as §1

[4] = Bioavailability of r-hIL-18BP by i.p. and s.c. route; type: in vivo, mouse
Procedure: as §1

G-CSF = G-CSF in BALF by ELISA, exacerbation/tobacco smoke mouse model; type: in vivo
Procedure: Mice received either vehicle (PBS) or IL-18BP. IL-18BP was given subcutaneously to 3 groups of animals respectively at 1, 3 or 10 mg/kg 2 h prior to the initial tobacco smoke exposure from Day 1 to Day 4. Mice received orally either vehicle or dexamethasone (10 mg/kg) 1 h prior to each twice daily exposure. Mice received by intranasal administration either the vehicle or Polyinosinic:polycytidylic acid (2 mg/kg) 2 h prior to the initial air or tobacco smoke exposure on Day 4 to induce lung inflammation exacerbation. Tobacco smoke exposure was performed during the morning and afternoon as follow: Day 1 for 15 min, Day 2 for 25 min, Day 3 for 30 min and Day 4 for 30 min.
Following the above treatments, animals were terminally anaesthetised on Day 5. After that, a blood sample was taken via the sub-clavian artery (plasma) and the animals were bronchoalveloar lavaged with 3×0.4 ml of PBS for further cellular and cytokine/mediator analysis. Bronchoalveolar lavage supernatants were stored at −80° C. for cytokine/mediator analysis. Cells recovered from the BALF were counted using the Sysmex cell counter.
G-CSF is well acknowledged as key cytokine stimulating the survival, proliferation, differentiation, and function of neutrophil precursors and mature neutrophils. […] The presence of G-CSF in the BALF was monitored with a commercially available ELISA kit.

IL-18 [5] = target: T1, IL-18; assay: Titration of free IL-18 as a function of IL-18BP level (free IL-18 ELISA); type: binding; set-up: purchased; conditions: 400 pg/mL IL-18 in PBS, 5% BSA
Procedure: Microplate wells are coated with an appropriate volume phosphate buffer saline solution containing recombinant human IL-18BP (r-hIL-18BP) as shown in SEQ ID NO 7, and less than 30% of N-terminal and/or C-terminal deletion variants of IL-18BP. A description of the r-hIL-18BP is provided in section 6.6.1 below. A description of the purification protocol is provided in section 6.6.2. Plates are incubated for a period of time at 4° C. and then stabilized with a blocking buffer containing bovine serum albumin or other appropriate blocking agents. Once the reaction is finished, microplates are sealed and stored at 4° C. until used for detection of free IL-18. […]
As an example, for a final reaction volume of 100 μl, dispense first 80 μl of biotin/antibody conjugate. […] The resulting reactions are then monitored with a microplate reader at an appropriate nanometer wavelength for absorbance or fluorescence of the produced reagent.
A constant quantity of recombinant IL-18 was titrated as a function of different and well-defined quantities of IL-18BP in order to understand when free IL-18 is not any more detectable. A PBS solution of 400 pg/mL IL-18 supplemented by 5% BSA was spiked with defined quantities of IL-18BP ranging from 0 to 10′000 pg/mL. The molar ratios were calculated according to the respective molecular weight of IL-18 and IL-18BP. […]

B1: IL-18BP: soluble glycoprotein of 164 amino acids produced from a Chinese Hamster Ovary cell line; isoform a, SEQ ID NO 7 (protein, listed as Homo sapiens)
chain: TPVSQTTTAATASVRSTKDPCPSQPPVFPAAKQCPALEVTWPEVEVPLNGTLSLSCVACSRFPNFSILYWLGNGSFIEHLPGRLWEGSTSRERGSTGTQLCKALVLEQLTPALHSTNFSCVLVDPEQVVQRHVVLAQLWAGLRATLPPTQEALPSSHSSPQQQG
modifications: CHO glycosylation; MISC_FEATURE - Human interleukin-18 binding protein isoform a
Kd (IL-18 [1]): 0.16 nM
Kd (IL-18 [2]): 0.4 nM
effective s.c. dose in mice ([3]; adjusted for s.c. bioavailability): 1.82 mg/kg
active dose ([3]; administered intraperitoneally (i.p.)): 1 mg/Kg body weight
human equivalent dose ([3]; allometric murine conversion factor of 12.3): 0.39 mg/kg
human equivalent dose ([3]; for a 70 Kg individual): 27.3 mg
expected pharmacologically active dose for a humanized mice ([3]; s.c. route, corrected for Kd difference): ~4.85 mg/kg
bioavailability ([4]; i.p. route): ~100%
bioavailability ([4]; s.c. route): 55%
G-CSF release in the lung airways (BALF) (G-CSF; IL-18BP s.c., day 5): mitigates G-CSF release in the lung airways
G-CSF release in the lung airways (BALF) (G-CSF; three tested doses 1, 3 or 10 mg/kg s.c.): statistically relevant effect
IL-18BP concentration at which 400 pg/mL IL-18 detection is near background detection level (IL-18 [5]): ≥ 6000 pg/mL
